For the series, the target named is T1, ZccR (MerR-type regulator) (Streptococcus mutans UA159) (UniProt Q8DRZ5).
T1 sequence: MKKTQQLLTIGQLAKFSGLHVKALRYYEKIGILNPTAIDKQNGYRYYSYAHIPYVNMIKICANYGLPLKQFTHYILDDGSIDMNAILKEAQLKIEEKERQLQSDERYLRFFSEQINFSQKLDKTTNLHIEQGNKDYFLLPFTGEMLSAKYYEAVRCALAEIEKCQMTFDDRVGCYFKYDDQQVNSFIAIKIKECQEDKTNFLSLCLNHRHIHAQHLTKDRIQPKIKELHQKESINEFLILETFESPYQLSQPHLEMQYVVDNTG
Put plainly: EMSA. The settings on record: 10 mM Tris, 50 mM KCl, 1 ug poly dI-dC, 1 mM DTT, 5% glycerol, pH 7.5; 20 fmol probe in 20 ul; 6% native PAGE at 4 C; binding temperature not stated. A general note: In EMSA bound probe runs differently from free probe, usually more slowly.

For the sequence “CACAAATAGCTTGACCTTCCCTTTAAGGTATAGTTTATAGTTAAACTATAACAAGGTTTGCTAAAAAATGCAATGATTTCTGTATTGGAAAGGAGCCAATCATGTCTAAAGGTGATAAACAAAAGAAAAGGCTTCAAAAAATGACTTGGCTTTCAATATG (double strand) [zccE-zccR intergenic region (IGR), 160 bp]”, the binding entry was “binds”.

Values taken from paper PMC9387928.
